Bridge positions count the residues as written; N and C are the ends. Square brackets hold non-standard residues; d marks the D form. Primed or numbered codes have the meaning given here. Side chains are listed from the residue outwards. Ends that are not written are not given here. * marks the point of attachment. Tyr(3-I) = N[C@@H](Cc1ccc(O)c(I)c1)C(=O)O; Gd^T = not defined here; Gd^T″ = GdDTPA-thiourea; Cbz = O=C(OCc1ccccc1)*
B1: Comp ID 835 (peptide)
peptide: {Gd^T}-DWTCS[dA]DEYTWHCNYE
modifications: disulfide 4-13 (inferred); not fully specified (C-terminus); printed as Gd^T-DWTCSaDEYTWHCNYE; reading uncertain
B2: Comp ID 834 (peptide)
peptide: {Gd^T″}-DWTCSGDEYYWHCNYE
modifications: disulfide 4-13 (inferred)
B3: Comp ID 883 (peptide)
peptide: GQWHCTTDFPHHYCLYG
modifications: not fully specified; Gd^T-GQWHCTTD-F(4-CN)-PHHYCLYG
B4: Comp ID 832 (peptide)
peptide: {Gd^T″}-GQWTCSGDEYAWHCNY[dE]
modifications: disulfide 5-14 (inferred)
B5: Comp ID 842 (peptide)
peptide: DWTCSGDEYTWYCNYE
modifications: not fully specified; Gd^T-DWTCSGDEYTWYCNYE
B6: Comp ID 833 (peptide)
peptide: {Gd^T″}-GQWTCSGDEYTWACNYE
modifications: disulfide 5-14 (inferred)
B7: Comp ID 840 (peptide)
peptide: GQWACSGDEYTWHCNYE
modifications: not fully specified; Gd^T-GQWACSGDEYTWHCNYE
B8: Comp ID 830 (peptide)
peptide: {Gd^T″}-GAWTCSGDEYTWHCNYE
modifications: disulfide 5-14 (inferred)
B9: SEQ ID NO: 108 (peptide)
peptide: YHACYQAGCYIY
modifications: disulfide 4-9 (inferred)
B10: Comp ID 836 (peptide)
peptide: {Gd^T}-DWTCS[dS]DEYTWHCNYE
modifications: disulfide 4-13 (inferred); not fully specified (C-terminus); printed as Gd^T-DWTCSsDEYTWHCNYE; reading uncertain
B11: Comp ID 847 (peptide)
peptide: {Gd^T}-DWTCS[dL]DEYTWHCNYE
modifications: disulfide 4-13 (inferred); not fully specified (C-terminus); reading uncertain
B12: Comp ID 966 (peptide)
peptide: {Gd^T″}-GK([Gly-Gd^T″])WHCTTLFPHHVCLYG
modifications: disulfide 5-14 (inferred); not fully specified (C-terminus); printed as Gd^T-G-K(G.Gd^T)-WHCTTLFPHHVCLYG
B13: Comp ID 904 (peptide)
peptide: GQWHCTTRFPHHXCLYG
modifications: not fully specified; Gd^T-GQWHCTTRFPHH-1-nal-CLYG
B14: Comp ID 846 (peptide)
peptide: {Gd^T}-DWTCSGDE[Tyr(3-I)]TWHCNYE
modifications: disulfide 4-13 (inferred); not fully specified (C-terminus); reading uncertain
B15: SEQ ID NO: 107 (peptide)
peptide: YHACYQAGCYIW
modifications: disulfide 4-9 (inferred)
B16: Comp ID 848 (peptide)
peptide: DWTCSGDEYTWHCNYE
modifications: not fully specified; Gd^T-DWTCSGDEYTWHCNYE
B17: Comp ID 940 (peptide)
peptide: Cbz-GQWHCTK(Gd^T″)RFPHHYCLYG
modifications: disulfide 5-14 (inferred); not fully specified (C-terminus); printed as cbz-GQWHCT-K(Gd^T)-RFPHHYCLYG

These binders were tested against human collagen type I (acid soluble, extracted from placenta, Sigma C7774) (human) (UniProt P02452) (assay: dried collagen assay).
Chain of human collagen type I (acid soluble, extracted from placenta, Sigma C7774) (human) (P02452 162-1218 limits assumed, chain 1 of 2): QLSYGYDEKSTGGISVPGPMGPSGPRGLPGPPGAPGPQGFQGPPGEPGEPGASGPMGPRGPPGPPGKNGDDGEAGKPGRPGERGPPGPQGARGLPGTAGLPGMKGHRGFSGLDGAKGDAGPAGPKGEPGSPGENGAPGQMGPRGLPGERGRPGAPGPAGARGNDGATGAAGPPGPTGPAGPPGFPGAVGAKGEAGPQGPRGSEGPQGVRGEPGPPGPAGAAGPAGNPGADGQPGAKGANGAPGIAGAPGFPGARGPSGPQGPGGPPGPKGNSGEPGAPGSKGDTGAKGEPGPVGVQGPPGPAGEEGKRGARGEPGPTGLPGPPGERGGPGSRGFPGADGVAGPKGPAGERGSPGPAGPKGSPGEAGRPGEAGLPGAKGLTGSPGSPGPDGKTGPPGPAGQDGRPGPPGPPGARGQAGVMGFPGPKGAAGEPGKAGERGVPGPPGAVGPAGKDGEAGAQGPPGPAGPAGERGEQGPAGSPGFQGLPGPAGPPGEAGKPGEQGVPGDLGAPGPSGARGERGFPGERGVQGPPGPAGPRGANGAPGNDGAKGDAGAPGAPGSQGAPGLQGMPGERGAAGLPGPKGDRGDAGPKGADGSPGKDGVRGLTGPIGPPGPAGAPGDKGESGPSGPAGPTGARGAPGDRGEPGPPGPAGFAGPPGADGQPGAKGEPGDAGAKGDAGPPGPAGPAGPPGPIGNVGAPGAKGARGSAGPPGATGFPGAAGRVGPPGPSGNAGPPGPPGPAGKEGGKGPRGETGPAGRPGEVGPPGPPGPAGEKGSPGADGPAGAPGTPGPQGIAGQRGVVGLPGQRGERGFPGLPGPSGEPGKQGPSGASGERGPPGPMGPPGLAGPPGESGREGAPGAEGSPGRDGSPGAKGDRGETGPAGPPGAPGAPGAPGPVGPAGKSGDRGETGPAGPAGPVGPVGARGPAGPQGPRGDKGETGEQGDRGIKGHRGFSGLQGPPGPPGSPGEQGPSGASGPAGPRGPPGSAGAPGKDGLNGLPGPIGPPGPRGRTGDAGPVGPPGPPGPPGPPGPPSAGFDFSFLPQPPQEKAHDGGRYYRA
Chain of human collagen type I (acid soluble, extracted from placenta, Sigma C7774) (human) (P08123 80-1119 limits assumed, chain 2 of 2, further chain): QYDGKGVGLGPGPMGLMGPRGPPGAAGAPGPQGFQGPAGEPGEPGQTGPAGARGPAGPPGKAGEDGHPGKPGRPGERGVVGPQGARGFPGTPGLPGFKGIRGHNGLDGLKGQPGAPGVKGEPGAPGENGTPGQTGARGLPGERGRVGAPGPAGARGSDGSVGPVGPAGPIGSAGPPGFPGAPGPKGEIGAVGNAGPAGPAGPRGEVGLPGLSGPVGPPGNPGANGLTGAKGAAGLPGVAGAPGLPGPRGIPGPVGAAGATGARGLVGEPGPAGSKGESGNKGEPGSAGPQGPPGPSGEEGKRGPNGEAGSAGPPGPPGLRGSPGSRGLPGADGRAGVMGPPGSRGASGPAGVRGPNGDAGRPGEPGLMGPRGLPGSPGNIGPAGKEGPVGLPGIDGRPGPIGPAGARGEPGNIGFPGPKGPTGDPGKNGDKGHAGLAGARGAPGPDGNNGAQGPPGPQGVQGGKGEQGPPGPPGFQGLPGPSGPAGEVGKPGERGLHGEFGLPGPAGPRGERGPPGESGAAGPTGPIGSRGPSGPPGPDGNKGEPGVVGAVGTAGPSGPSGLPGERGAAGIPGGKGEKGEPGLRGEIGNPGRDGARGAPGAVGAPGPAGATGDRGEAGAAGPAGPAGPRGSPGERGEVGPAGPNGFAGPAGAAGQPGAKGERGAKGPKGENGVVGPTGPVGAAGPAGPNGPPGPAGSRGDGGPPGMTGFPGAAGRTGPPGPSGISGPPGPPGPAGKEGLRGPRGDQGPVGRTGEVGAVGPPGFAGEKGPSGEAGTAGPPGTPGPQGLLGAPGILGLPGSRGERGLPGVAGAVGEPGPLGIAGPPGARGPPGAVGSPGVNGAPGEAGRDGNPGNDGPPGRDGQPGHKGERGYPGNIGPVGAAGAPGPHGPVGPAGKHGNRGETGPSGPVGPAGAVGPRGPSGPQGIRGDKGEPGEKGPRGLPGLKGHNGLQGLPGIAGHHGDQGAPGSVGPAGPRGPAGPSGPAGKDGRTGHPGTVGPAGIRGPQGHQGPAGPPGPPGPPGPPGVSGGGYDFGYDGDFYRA

% bound [%]	Binder
17	B1
22	B2
8	B3
12	B4
23	B5
13	B6
15	B7
26	B8
5	B9
13	B10
16	B11

Each binder was assayed against rat collagen (acid soluble, type I, rat tail, Upstate 08-115) (rat) (UniProt P02454) (assay: dried collagen assay).
Chain of rat collagen (acid soluble, type I, rat tail, Upstate 08-115) (rat) (P02454 152-1207 limits assumed, chain 1 of 2): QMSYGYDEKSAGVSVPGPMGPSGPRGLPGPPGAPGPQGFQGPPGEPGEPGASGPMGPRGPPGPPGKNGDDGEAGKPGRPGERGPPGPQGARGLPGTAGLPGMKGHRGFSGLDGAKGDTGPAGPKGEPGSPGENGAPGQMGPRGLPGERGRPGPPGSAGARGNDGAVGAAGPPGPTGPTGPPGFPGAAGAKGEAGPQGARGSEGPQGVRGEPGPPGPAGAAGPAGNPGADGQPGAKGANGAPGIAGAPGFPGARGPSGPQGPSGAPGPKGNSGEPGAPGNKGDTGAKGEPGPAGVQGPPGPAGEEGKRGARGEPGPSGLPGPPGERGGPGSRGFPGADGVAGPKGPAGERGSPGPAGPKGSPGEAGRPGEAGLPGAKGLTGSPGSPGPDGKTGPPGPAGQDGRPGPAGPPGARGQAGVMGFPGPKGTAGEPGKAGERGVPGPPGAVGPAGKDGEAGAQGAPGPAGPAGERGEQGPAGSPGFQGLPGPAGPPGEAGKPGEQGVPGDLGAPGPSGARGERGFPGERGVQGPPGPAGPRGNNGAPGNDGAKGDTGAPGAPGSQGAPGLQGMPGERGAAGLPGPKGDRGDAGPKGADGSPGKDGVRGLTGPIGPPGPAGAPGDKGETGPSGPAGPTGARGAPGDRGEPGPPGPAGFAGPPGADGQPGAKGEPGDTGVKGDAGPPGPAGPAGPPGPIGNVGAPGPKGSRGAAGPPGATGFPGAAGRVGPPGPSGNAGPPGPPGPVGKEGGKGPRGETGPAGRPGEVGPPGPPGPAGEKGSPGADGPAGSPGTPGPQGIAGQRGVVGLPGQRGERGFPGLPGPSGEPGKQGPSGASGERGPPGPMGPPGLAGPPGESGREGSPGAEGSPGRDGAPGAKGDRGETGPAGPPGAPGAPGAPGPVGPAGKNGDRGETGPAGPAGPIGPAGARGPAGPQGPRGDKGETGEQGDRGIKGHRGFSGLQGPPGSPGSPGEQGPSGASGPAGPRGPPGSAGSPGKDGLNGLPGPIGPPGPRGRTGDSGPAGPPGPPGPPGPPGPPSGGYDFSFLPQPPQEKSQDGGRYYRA
Chain of rat collagen (acid soluble, type I, rat tail, Upstate 08-115) (rat) (P02466 86-1125 limits assumed, chain 2 of 2, further chain): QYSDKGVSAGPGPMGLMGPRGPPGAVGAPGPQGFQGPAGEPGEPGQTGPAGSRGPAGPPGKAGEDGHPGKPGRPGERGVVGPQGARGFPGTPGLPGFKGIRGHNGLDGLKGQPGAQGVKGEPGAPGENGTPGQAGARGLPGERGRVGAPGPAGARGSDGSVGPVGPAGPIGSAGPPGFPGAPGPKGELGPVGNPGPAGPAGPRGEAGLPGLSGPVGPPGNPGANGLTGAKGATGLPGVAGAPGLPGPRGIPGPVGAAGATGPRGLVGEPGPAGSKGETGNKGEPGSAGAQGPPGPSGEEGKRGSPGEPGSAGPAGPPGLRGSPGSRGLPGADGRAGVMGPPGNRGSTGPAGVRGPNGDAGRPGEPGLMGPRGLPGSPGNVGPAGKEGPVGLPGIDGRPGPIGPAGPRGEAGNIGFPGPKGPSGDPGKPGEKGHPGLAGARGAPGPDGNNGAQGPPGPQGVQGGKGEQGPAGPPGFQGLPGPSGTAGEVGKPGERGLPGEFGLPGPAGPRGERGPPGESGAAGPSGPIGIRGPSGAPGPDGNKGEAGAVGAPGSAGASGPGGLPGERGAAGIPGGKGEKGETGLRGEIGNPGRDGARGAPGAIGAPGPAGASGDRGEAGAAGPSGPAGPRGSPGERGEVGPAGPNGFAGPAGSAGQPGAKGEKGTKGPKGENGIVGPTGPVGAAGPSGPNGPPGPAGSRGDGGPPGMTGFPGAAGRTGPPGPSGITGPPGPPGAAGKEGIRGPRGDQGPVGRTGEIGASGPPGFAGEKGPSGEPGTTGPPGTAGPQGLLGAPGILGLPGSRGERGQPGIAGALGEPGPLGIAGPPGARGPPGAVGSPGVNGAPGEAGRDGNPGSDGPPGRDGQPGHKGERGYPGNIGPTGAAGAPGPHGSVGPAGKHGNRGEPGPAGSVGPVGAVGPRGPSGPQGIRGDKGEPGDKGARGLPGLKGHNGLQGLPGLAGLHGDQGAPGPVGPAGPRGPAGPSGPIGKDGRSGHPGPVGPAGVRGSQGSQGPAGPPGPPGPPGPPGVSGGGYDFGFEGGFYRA

% bound [%]	Binder
9	B1
9	B2
2	B3
4	B4
9	B5
8	B12
3	B13
4	B6
3	B7
9	B14
11	B8
6	B15
9	B16
12	B9
8	B17
8	B10
7	B11

The binders below were run against T1, human collagen type I (acid soluble, extracted from placenta, Sigma C7774) (human, UniProt P02452 162-1218; P08123 80-1119) (assay: dried collagen assay).
T1 construct: gelled and dried as a fibril film in the assay; also called dried human collagen; h-Collagen
T1 sequence (P02452 162-1218 limits assumed, chain 1 of 2): as the sequence (P02452 162-1218 limits assumed, chain 1 of 2) above
T1 sequence (P08123 80-1119 limits assumed, chain 2 of 2): as the sequence (P08123 80-1119 limits assumed, chain 2 of 2, further chain) above
Description: An additional 90 μL is reserved in a HPLC glass vial as a measure of the total concentration.

% bound [%]	Binder
9	B15
